{"source": "paper doi:10.1101/2024.03.25.586599", "about": "(bioRxiv, 2024)", "assay_in_all_cases": "SPR", "key": {"[1]": {"molecular_target": "T1, N-terminally biotinylated synthetic FLAG peptide, 4-residue variant (DYKD) (synthetic construct)", "T1 chain": "Biotin-DYKD"}, "[2]": {"molecular_target": "T2, N-terminally biotinylated synthetic FLAG peptide, Asp5Glu (DYKDEDDK) (synthetic construct, point mutant, not fully specified (N-terminus))", "T2 chain": "DYKDEDDK"}, "[3]": {"molecular_target": "T3, N-terminally biotinylated synthetic FLAG peptide, truncated, Asp5Glu (DYKDED) (synthetic construct, point mutant)", "T3 chain": "Biotin-DYKDED"}, "[4]": {"molecular_target": "T4, N-terminally biotinylated synthetic FLAG peptide, wildtype (DYKDDDDK) (synthetic construct, not fully specified (N-terminus))", "T4 chain": "DYKDDDDK"}, "[5]": {"molecular_target": "T5, N-terminally biotinylated synthetic FLAG peptide, six-residue truncated version (DYKDDD) (synthetic construct)", "T5 chain": "Biotin-DYKDDD"}, "[6]": {"molecular_target": "T6, N-terminally biotinylated synthetic FLAG peptide, 5-residue variant (DYKDD) (synthetic construct)", "T6 chain": "Biotin-DYKDD"}, "[7]": {"molecular_target": "T2, N-terminally biotinylated synthetic …"}, "[8]": {"molecular_target": "T4, N-terminally biotinylated synthetic …"}, "[9]": {"molecular_target": "T1, N-terminally biotinylated synthetic …"}, "[10]": {"molecular_target": "T3, N-terminally biotinylated synthetic …"}, "[11]": {"molecular_target": "T7, N-terminally biotinylated synthetic FLAG peptide truncated by one C-terminal residue (DYKDDDD) (synthetic construct)", "T7 chain": "Biotin-DYKDDDD"}, "[12]": {"molecular_target": "T5, N-terminally biotinylated synthetic …"}, "[13]": {"molecular_target": "T6, N-terminally biotinylated synthetic …"}, "[14]": {"molecular_target": "T7, N-terminally biotinylated synthetic …"}}, "note": "Ends that are not written are not given here. * marks the point of attachment. Biotin = O=C1N[C@H]2[C@H](CS[C@H]2CCCCC(=O)*)N1", "data": [{"binder": "anti-FLAG M2 IgG (wildtype, recombinant) (antibody, V domains shown) VH: QVQLQQSAAELARPGASVKMSCKASGYSFTTYTIHWVKQRPGQGLEWIGYINPSSGYAAYNQNFKDETTLTADPSSSTAYMELNSLTSEDSAVYYCAREKFYGYDYWGQGATLTVSS VL: DVLMTQIPLSLPVSLGDQASISCRSSQSIVHRNGNTYLEWYLLKPGQSPKLLIYKVSNRFSGVPDRFSGSGSGTDFTLKISRVEAEDLGVYYCFQGSHVPYTFGGGTKLEIR", "values": [{"measurement": "KD, first site (two-site binding model)", "setting": "[1]", "value": "52.9 ± 22.1", "unit": "nM"}, {"measurement": "KD, first site (two-site binding model)", "setting": "[2]", "value": "2.23 ± 0.25", "unit": "nM"}, {"measurement": "KD, first site (two-site binding model)", "setting": "[3]", "value": "10.2 ± 0.48", "unit": "nM"}, {"measurement": "KD, first site (two-site binding model)", "setting": "[4]", "value": "2.95 ± 0.31", "unit": "nM"}, {"measurement": "KD, first site (two-site binding model)", "setting": "[5]", "value": "9.72 ± 2.6", "unit": "nM"}, {"measurement": "KD, first site (two-site binding model)", "setting": "[6]", "value": "154 ± 100", "unit": "nM"}]}, {"binder": "anti-FLAG M2 Fab (wildtype, recombinant) (Fab, V domains shown) VH: QVQLQQSAAELARPGASVKMSCKASGYSFTTYTIHWVKQRPGQGLEWIGYINPSSGYAAYNQNFKDETTLTADPSSSTAYMELNSLTSEDSAVYYCAREKFYGYDYWGQGATLTVSS VL: DVLMTQIPLSLPVSLGDQASISCRSSQSIVHRNGNTYLEWYLLKPGQSPKLLIYKVSNRFSGVPDRFSGSGSGTDFTLKISRVEAEDLGVYYCFQGSHVPYTFGGGTKLEIR", "values": [{"measurement": "Kd", "setting": "[7]", "value": "1780 ± 130", "unit": "nM"}, {"measurement": "Kd", "setting": "[8]", "value": "1910 ± 240", "unit": "nM"}]}, {"binder": "anti-FLAG M2 Fab, heavy chain K100R (Fab, V domains shown) VH: QVQLQQSAAELARPGASVKMSCKASGYSFTTYTIHWVKQRPGQGLEWIGYINPSSGYAAYNQNFKDETTLTADPSSSTAYMELNSLTSEDSAVYYCARERFYGYDYWGQGATLTVSS VL: DVLMTQIPLSLPVSLGDQASISCRSSQSIVHRNGNTYLEWYLLKPGQSPKLLIYKVSNRFSGVPDRFSGSGSGTDFTLKISRVEAEDLGVYYCFQGSHVPYTFGGGTKLEIR", "values": [{"measurement": "fold drop in affinity against the wildtype Fab", "setting": "[9]", "value": "~20", "unit": "fold"}, {"measurement": "fold drop in affinity against the wildtype Fab", "setting": "[7]", "value": "~20", "unit": "fold"}, {"measurement": "fold drop in affinity against the wildtype Fab", "setting": "[10]", "value": "~20", "unit": "fold"}, {"measurement": "fold drop in affinity against the wildtype Fab", "setting": "[8]", "value": "~20", "unit": "fold"}, {"measurement": "fold drop in affinity against the wildtype Fab", "setting": "[11]", "value": "~20", "unit": "fold"}, {"measurement": "fold drop in affinity against the wildtype Fab", "setting": "[12]", "value": "~20", "unit": "fold"}, {"measurement": "fold drop in affinity against the wildtype Fab", "setting": "[13]", "value": "~20", "unit": "fold"}]}, {"binder": "anti-FLAG M2 IgG, heavy chain K100R (antibody, V domains shown) VH: QVQLQQSAAELARPGASVKMSCKASGYSFTTYTIHWVKQRPGQGLEWIGYINPSSGYAAYNQNFKDETTLTADPSSSTAYMELNSLTSEDSAVYYCARERFYGYDYWGQGATLTVSS VL: DVLMTQIPLSLPVSLGDQASISCRSSQSIVHRNGNTYLEWYLLKPGQSPKLLIYKVSNRFSGVPDRFSGSGSGTDFTLKISRVEAEDLGVYYCFQGSHVPYTFGGGTKLEIR", "values": [{"measurement": "fold drop in affinity against the wildtype IgG", "setting": "[1]", "value": "~20", "unit": "fold"}, {"measurement": "fold drop in affinity against the wildtype IgG", "setting": "[2]", "value": "~20", "unit": "fold"}, {"measurement": "fold drop in affinity against the wildtype IgG", "setting": "[3]", "value": "~20", "unit": "fold"}, {"measurement": "fold drop in affinity against the wildtype IgG", "setting": "[4]", "value": "~20", "unit": "fold"}, {"measurement": "fold drop in affinity against the wildtype IgG", "setting": "[14]", "value": "~20", "unit": "fold"}, {"measurement": "fold drop in affinity against the wildtype IgG", "setting": "[5]", "value": "~20", "unit": "fold"}, {"measurement": "fold drop in affinity against the wildtype IgG", "setting": "[6]", "value": "~20", "unit": "fold"}]}]}
